According to PMC4768215, “Targeting surface-layer proteins with single-domain antibodies: a potential therapeutic approach against Clostridium difficile-associated disease” (Applied Microbiology and Biotechnology, 2015):

B1: SLP_VHH22 displayed on phage (VHH)
VHH: QVQLVESGGGLVQPGGSLRLSCAASGFTLDSYAIGWFRQAPGKEHEGISCISSNGGSTYYTDSVKGRFTISRDNAKNTVYLQMNSLESEDSAVYYCATVRRCSSLDMALGALATRTKGYDYWGQGTQVTVSS
notes: as the VHH of m4
B2: SLP_VHH12 displayed on phage (VHH)
VHH: QVQLVESGGGLVQAGDSLRLSCAASGGTFSSYAVGWFRQAPGKERQFVAAISWSGRSTEYADSVKGRFTISRDNAKNTVYLQMNSLQPDDTGVYYCAADWSHPENKAELLRLRLWVLSAESSDYWGQGTQVTVSS
notes: as the VHH of m3
B3: SLP_VHH50 displayed on phage (VHH)
VHH: QVKLEESGGGLVQPGGSLRLSCAASGFTLDYYTIGWFRQAPGKEREGVACISSDDRTYYVDSVKGRFAISRDNVKNTVYLQMNNLKPEDTAVYYCASKESVFLIATMKGCAPGHDDYWGQGTQVTVSS
notes: as the VHH of m9
B4: SLP_VHH23 displayed on phage (VHH)
VHH: QVQLVESGGGLVQAGGSLRLSCAASGRTFSSYAVGWFRQAPGKEREFVAAISWSGGYTDYADSVKGRFTISRDNAKNTVYLQMNNLKPEDTAVYYCAADWSHPENKAELLRLRLWVLSAESSDDWGQGTQVTVSS
notes: as the VHH of m5
B5: SLP_VHH46 displayed on phage (VHH)
VHH: QVKLEESGGGLVQAGGSLRLSCADSERTFRIYTMAWFRQAPGKERDFVAAISWSGGSTYYADSVKGRFTISRDNAKNTVYLPMNSLKPDDTAVYYCASGGVLSTGSQSDSEYDFWGQGTQVTVSS
notes: as the VHH of m7
B6: SLP_VHH49 displayed on phage (VHH)
VHH: QVKLEESGGGLVQAGGSLRLSCAASEGAFSDALSRHAAGWFRQAPGKEREFVAAISWNGANTDYKNSVNNRFTISRDTSKNTVYLQMNSLKPEDTAVYYCAAKNEPSWISRIYYRGLEYDYWGQGTQVTVSS
notes: as the VHH of m8
B7: SLP_VHH12 (VHH)
VHH: B2 VHH
notes: From an immune llama phage display library panned on QCD-32g58 SLP; source: monomeric SEC fractions for SPR; not shown: His6, C-terminal, kept
B8: SLP_VHH2 (VHH)
VHH: QVKLEESGGGLVQPGGSLRLSCAASGGTFTNYAMAWFRQTPGNDREFVGIISQKGGRTYYADSVKGRFSVSRDNAKNTAYLQMNSLKPEDTAVYYCAAGDSSYYYTRSRYDIWGQGTQVTVSS
notes: as for B7
B9: SLP_VHH23 (VHH)
VHH: B4 VHH
notes: as for B7
B10: SLP_VHH46 (VHH)
VHH: B5 VHH
notes: as for B7
B11: SLP_VHH49 (VHH)
VHH: B6 VHH
notes: as for B7
B12: SLP_VHH5 (VHH)
VHH: QVKLEESGGGLVQAGGSLRLSCAASRLTFSTYHMGWFRQAPGKEREFVAALSWSGGTTYYADSVKGRFGISRDNAKNTVYLQMNSLKPEDTAVYYCASGGVLATMNSDEYDYWGQGTQVTVSS
notes: as for B7

The binders below were run against T1, 630 SLP (surface layer protein of C. difficile strain 630, HMW and LMW subunits) (Clostridioides difficile 630 (ribotype …, UniProt Q183M8, strain)) (assay: ELISA; monoclonal phage ELISA: phage-displayed VHHs on immobilized SLPs). Conditions: one partner purified.
T1 construct: low-molecular-weight (LMW) subunit of the surface layer protein, cut from the precursor SlpA by Cwp84, C. difficile strain 630 (ribotype 012); predicted mass 34.2 kDa; high-molecular-weight (HMW) subunit of the surface layer protein, cut from the precursor SlpA by Cwp84, C. difficile strain 630 (ribotype 012); predicted mass 39.5 kDa; Both subunits come from one precursor, SlpA; source: purified …

Row | Binder | binding result
1 | B1 | no binding
2 | B2 | no binding
3 | B3 | no binding
4 | B4 | no binding
5 | B5 | no binding
6 | B6 | no binding

These binders were tested against T1, 630 SLP (surface layer protein of C. …) (assay: SPR; Biacore 3000; 630 SLP immobilised on a CM5 chip, VHHs injected at various concentrations; data not shown). Conditions: both partners purified.

Row | Binder | binding result | Kd [nM]
7 | B7 | no binding | –
8 | B8 | – | 1000
9 | B9 | no binding | –
10 | B10 | no binding | –
11 | B11 | no binding | –

Each binder was assayed against T2, SLP on cells of C. difficile strain BI-1 (ribotype 027) (Clostridioides difficile BI-1 (ribotype …, UniProt A0A9R0BMB3, strain)) (assay: ELISA; whole cell ELISA: formalin-fixed C. difficile cells coated on MaxiSorp plates, His6-tagged VHH at 10 μg/ml in PBS-T, 37 °C, 1 h, detected with anti-His6-HRP). Conditions: one partner purified.
T2 construct: LMW subunit of the surface layer protein (from the precursor SlpA), C. difficile strain BI-1, ribotype 027; HMW subunit of the surface layer protein (from the precursor SlpA), C. difficile strain BI-1, ribotype 027; Whole cells were the antigen; source: endogenous, on formalin-fixed C. difficile BI-1 cells

Row | Binder | binding result
12 | B7 | binds
13 | B8 | binds
14 | B9 | binds
15 | B10 | binds
16 | B11 | binds
17 | B12 | binds

The binders below were run against T3, SLP on cells of C. difficile strain BI-7 (ribotype 027) (Clostridioides difficile BI-7 (ribotype …, UniProt A0A9R0BMB3, strain)) in the same assay as above. Conditions: one partner purified.
T3 construct: LMW subunit of the surface layer protein (from the precursor SlpA), C. difficile strain BI-7, ribotype 027; HMW subunit of the surface layer protein (from the precursor SlpA), C. difficile strain BI-7, ribotype 027; Whole cells were the antigen; source: endogenous, on formalin-fixed C. difficile BI-7 cells

Row | Binder | binding result
18 | B7 | binds
19 | B8 | binds
20 | B9 | binds
21 | B10 | binds
22 | B11 | binds
23 | B12 | binds

The binders below were run against T4, SLP on cells of C. difficile strain 196 (ribotype 027) (Clostridioides difficile 196 (ribotype …, UniProt A0A9R0BMB3, strain)) in the same assay as above. Conditions: one partner purified.
T4 construct: LMW subunit of the surface layer protein (from the precursor SlpA), C. difficile strain 196, ribotype 027; HMW subunit of the surface layer protein (from the precursor SlpA), C. difficile strain 196, ribotype 027; Whole cells were the antigen; source: endogenous, on formalin-fixed C. difficile 196 cells

Row | Binder | binding result
24 | B7 | binds
25 | B8 | binds
26 | B9 | binds
27 | B10 | binds
28 | B11 | binds
29 | B12 | binds

What follows are binders tested against T5, SLP on cells of C. difficile strain R20291 (ribotype 027) (Clostridioides difficile R20291 …, UniProt A0A9R0BMB3, strain) in the same assay as above. Conditions: one partner purified.
T5 construct: LMW subunit of the surface layer protein (from the precursor SlpA), C. difficile strain R20291, ribotype 027; HMW subunit of the surface layer protein (from the precursor SlpA), C. difficile strain R20291, ribotype 027; Whole cells were the antigen; source: endogenous, on formalin-fixed C. difficile R20291 cells

Row | Binder | binding result
30 | B7 | binds
31 | B8 | binds
32 | B9 | binds
33 | B10 | binds
34 | B11 | binds
35 | B12 | binds

What follows are binders tested against T6, QCD-32g58 LMW SLP (low-molecular-weight subunit of the QCD-32g58 surface layer protein) (Clostridioides difficile QCD-32g58 …, UniProt A0A9R0BMB3, strain) (assay: SPR; Biacore 3000; SEC-purified QCD-32g58 LMW SLP subunit amine-coupled to a CM5 chip; single-concentration screen, 200 nM VHH; 25 °C, 10 mM HEPES pH 7.4, 150 mM NaCl, 3 mM EDTA, 0.005 % P20). Conditions: both partners purified.
T6 construct: low-molecular-weight (LMW) subunit of the surface layer protein, cut from the precursor SlpA by Cwp84, C. difficile strain QCD-32g58 (ribotype 027); predicted mass 33.9 kDa; also called QCD-32g58 SLP LMW subunit; LMW subunit; source: purified from C. difficile QCD-32g58 (low-pH glycine extraction, minor SEC peak at about 15 ml); in the Western blot the LMW band of the extracted SLPs

Row | Binder | Kd [nM] | koff [s⁻¹] | kon [M⁻¹ s⁻¹]
36 | B7 | 1 | 0.00012 | 140000
37 | B8 | 90 | 0.013 | 150000
38 | B9 | 3 | 0.00032 | 110000
39 | B10 | 2 | 0.00032 | 150000
40 | B11 | 20 | 0.012 | 590000
41 | B12 | 3 | 0.00041 | 140000

Each binder was assayed against T7, QCD-32g58 SLP (surface layer protein of C. difficile strain QCD-32g58, HMW and LMW subunits) (Clostridioides difficile QCD-32g58 …, UniProt A0A9R0BMB3, strain) (assay: SPR; Biacore 3000; SEC-purified QCD-32g58 SLP amine-coupled to a CM5 chip, VHH monomer fractions injected at various concentrations; 25 °C, 10 mM HEPES pH 7.4, 150 mM NaCl, 3 mM EDTA, 0.005 % P20; KD by steady-state analysis). Conditions: both partners purified.
T7 construct: low-molecular-weight (LMW) subunit of the surface layer protein, cut from the precursor SlpA by Cwp84, C. difficile strain QCD-32g58 (ribotype 027); predicted mass 33.9 kDa; high-molecular-weight (HMW) subunit of the surface layer protein, cut from the precursor SlpA by Cwp84, C. difficile strain QCD-32g58 (ribotype 027); predicted mass 44.2 kDa; Both subunits come from one precursor, SlpA; also …

Row | Binder | Kd [nM]
42 | B8 | 230
43 | B11 | 48

The binders below were run against T7, QCD-32g58 SLP (surface layer protein of …) (assay: SPR; Biacore 3000; fresh QCD-32g58 SLP surface on a CM5 chip, a single injection of each VHH (50 mM NaOH regeneration destroyed the surface); 25 °C, 10 mM HEPES pH 7.4, 150 mM NaCl, 3 mM EDTA, 0.005 % P20; KD from kinetic rate constants). Conditions: both partners purified.

Row | Binder | Kd [nM] | koff [s⁻¹] | kon [M⁻¹ s⁻¹]
44 | B7 | 3 | 0.00034 | 120000
45 | B9 | 4 | 0.00037 | 94000

The binders below were run against T7, QCD-32g58 SLP (surface layer protein of …) (assay: SPR; Biacore 3000; SEC-purified QCD-32g58 SLP amine-coupled to a CM5 chip, VHH monomer fractions injected at various concentrations; 25 °C, 10 mM HEPES pH 7.4, 150 mM NaCl, 3 mM EDTA, 0.005 % P20, 20 μl/min; KD from kinetic rate constants). Conditions: both partners purified.

Row | Binder | Kd [nM] | koff [s⁻¹] | kon [M⁻¹ s⁻¹]
46 | B10 | 3 | 0.00034 | 110000
47 | B12 | 6 | 0.00046 | 82000
